Biological target: MreB from Geobacillus stearothermophilus (MreB^Gs), wild type, His6-tagged (Geobacillus stearothermophilus ATCC 7953)
Assay: negative stain electron microscopy of polymerization

concentration of MreB above which polymers were observed: 0.55 µM
Substance: MreB from Geobacillus stearothermophilus (MreB^Gs), wild type, His6-tagged (natural protein)

Source: doi:10.1101/2022.10.19.512861
